Earlier results in publication PMC5123080.

Target: UNC5B ECD (Mus musculus) (UniProt Q8K1S3)
Chain of UniProt Q8K1S3 (Q8K1S3 27-377): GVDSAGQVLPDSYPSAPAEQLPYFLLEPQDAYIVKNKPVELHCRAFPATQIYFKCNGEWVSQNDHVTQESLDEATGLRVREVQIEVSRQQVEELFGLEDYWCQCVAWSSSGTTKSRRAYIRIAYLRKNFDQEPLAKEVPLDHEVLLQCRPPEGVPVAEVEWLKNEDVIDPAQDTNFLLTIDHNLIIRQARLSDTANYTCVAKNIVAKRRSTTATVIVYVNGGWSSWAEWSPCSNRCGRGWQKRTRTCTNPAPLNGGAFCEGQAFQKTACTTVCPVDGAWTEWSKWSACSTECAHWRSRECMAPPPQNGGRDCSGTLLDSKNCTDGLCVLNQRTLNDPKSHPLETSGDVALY

For Robo4 ECD (from UniProt Q8C310), the Kd is listed as 12 nM.
